Substrate: Nc1ncnc2c1ncn2[C@@H]1O[C@H](COP(=O)(O)OP(=O)(O)OP(=O)(O)O)[C@@H](O)[C@H]1O
Assay: purified protein
Settings: varied substrate not named in table (text: substrates ATP and AMP)

B1: AKeco (Escherichia coli K-12; K47A) (protein)
chain: MRIILLGAPGAGKGTQAQFIMEKYGIPQISTGDMLRAAVKSGSELGAQAKDIMDAGKLVTDELVIALVKERIAQEDCRNGFLLDGFPRTIPQADAMKEAGINVDYVLEFDVPDELIVDRIVGRRVHAPSGRVYHVKFNPPKVEGKDDVTGEELTTRKDDQEETVRKRLVEYHQMTAPLIGYYSKEAEAGNTKYAKVDGTKPVAEVRADLEKILG
- Km: 116 ± 8 µM
- kcat: 464 s⁻¹
- kcat/Km: 4e+06 M⁻¹ s⁻¹

Reference: paper PMC12548092, “Exploring Helical Fraying Linked to Dynamics and Catalysis in Adenylate Kinase” (Biochemistry, 2025)
